Here are results for 41 sequences from the nanobody polyreactivity screen of Harvey et al. (2022).

The series is described as follows: yeast display, Sf9 membrane polyspecificity reagent, FACS + sequencing; frameworks hold sequencing errors. In outline:
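A synthetic nanobody library was expressed on Saccharomyces cerevisiae BJ5465 by galactose induction for 36–48 hours. The library was stained for 1 hour at 4 °C with 10% biotinylated, detergent-solubilized Sf9 membrane reagent and enriched with streptavidin microbeads before FACS. Low and high (top ~1%) gates were set on anti-HA fluorescence for expression and streptavidin fluorescence for reagent binding, and each polyreactivity label reflects the gate of origin.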
“QVQLVESGGGLVQAGGSLRLSCAASGFIFGYNAMGWYRQAPGKERELVAAITRSGGRTYYADSVKGRFTISRDNAKNTVYLQMNSLKPEDTSVYYCAASRFATYPRWYDYWGQGTQVTVSS”: the “polyreactivity (PSR sort gate)” value is recorded as “low polyreactivity”.

For the sequence “QDQLVESGGGLVQAGGSLRLSCAAYGSTFPVYTMGWYRQAPRKEREFVAAITGSGGRTYYADSVKGRFTISRDNAKNTVFLQMNSLKPEDTAVYYCNAYPKGRYAAAFPGMDYWGQGTQVTVSS”, the “polyreactivity (PSR sort gate)” value was “high polyreactivity”.

Turning to “QVQLVESGGGLVQAGGSLRLSCDASGFIFVVYALGWYRQAPGKERDLVAAITNGGITYYADSVKGRFTISRDNAKNTVYLQMNSLKPEDTAVYYCNAQYTVYDGYVCYYYWGQGTQVTVSS”, the “polyreactivity (PSR sort gate)” value is “low polyreactivity”.

Turning to “QVQLVESGGGLVQAGGSLRLSCAASGLTFPNNGMGWYRQAPGKERELVAAIRSSGGSTYYADSVKGRFTISRDNAKNTVYLQMNSLKPEDTAVYYCNARRRGGYVGRPRYPVAAYDYWGQGTQVTVSS”, the “polyreactivity (PSR sort gate)” value was “low polyreactivity”.

With “QVQLVESGGGLVQAGGSLRLSCAASGFTFRTYAMGRYRQAPGTERELVAAINVSGGTYYADSVKGRFTISRDNAKNTVYLQMNSLKPEDSAVYYCTANRFRTGFDYWGQGTQVTVSS”, the “polyreactivity (PSR sort gate)” value is “low polyreactivity”.

For the sequence “QVQLVESGGGLVQAGGSLRLSCAASGFIFRNYAMGWYRQAPGKERELVAAISRRAGSTYYADSVKGRFTISRDNAKNTVYLQMNSLKPEVTAVYYCAADSYWRYYPTKYDYWGQGTQVTVSS”, the “polyreactivity (PSR sort gate)” value is recorded as “high polyreactivity”.

On to “KDQLVESGGGLVQAGGSLRLSCAASGLTFGGNAMGWYRQAPGKERELVAGISSSGNTNDADSVKGRFTISRDNAKNTVYLQLNSLKPEDTAVYYCAADENITYPVYDLYYWGQGTQVTVSS”, for which the “polyreactivity (PSR sort gate)” value is recorded as “low polyreactivity”.

For the sequence “QVQLVESGGGLVQAGGSLRLSCAASGFTFYYYAMGWYRQAPGKERELVATISSGGSTYYADSVKGRFTISRDNAKNTVYLQMNSLKPEDTAVYYCAADYLIYYLYEGSIKYGYWGQGTQVTVSS”, the “polyreactivity (PSR sort gate)” value is recorded as “high polyreactivity”.

For “QVQLVESGGGLVQAGGSLRLSCAASGFTIGYYVMGWYRQAPGKDRELVAAITRSGSRTYYADSVKGRFTISRDNAKNTVYLQMNSLKPEETAVYYCAADYKTFLRSFDYWGQGTQVTVSS”, the “polyreactivity (PSR sort gate)” value is recorded as “high polyreactivity”.

On to “QVQLVESGGGLVQAGGSLRLSCAASGRTFGIYAMGWYRQAPGTERQMVADITSGGDTYYADSVKGRFTISRDNAKNTVYLQMNSLKPEDTAVYYCAADIYPDWIYLLYGYWGQGTQVNVSS”, for which the “polyreactivity (PSR sort gate)” value was “low polyreactivity”.

“QVQLVESGGGLVQAGGSLRLSCAASGFTFYLYAMGWYRPAPGKERELVAAITYSAGSTYYADSVKGRFTISRDNEKNTVYLQMNSLKPEDTAVFSCAKRGHYRAWGGGGYWGQGTQVTVSS”: the “polyreactivity (PSR sort gate)” value is on record as “low polyreactivity”.

“QVQLQESGGGLVQAGGTLRLSCAASGTISFTRDMGWYRQAPGKEREFVASIDRGASTYYADSVKGRFTISRDNAKNTVYLQMNSLKPEDNAVYYRAVIAPFYSSFAYWGQGTQVTVSS”: the “polyreactivity (PSR sort gate)” value is given as “high polyreactivity”.

Turning to “QVQLVESGGGLVQAGGSLRLSCAASGFTSRRYAMGWYRQAPGKERELVAAISWSGGSTYYADSVKGRFTISRDNAKNTVYLQMNSLKPEDTAVYYCAAKRYSSKRGLDYWGQGTQVTVSS”, the “polyreactivity (PSR sort gate)” value was “high polyreactivity”.

As for “QVQLVESGGGLVQAGGSLLISCAASGRIFYYNTMGWSRQEPGKESELVAAITTNGGSTYYADSVKGRFTISRDNAKITVYLQMNSLNPEDTAVYYCNRDRYPYYSAYNYWGQGTQVTVSS”, the “polyreactivity (PSR sort gate)” value is “low polyreactivity”.

“QVQLVESGGGLVQAGGSLRLSCADSRSTFYIYAMGWYRQAPGKERELVAAIRRSGGSTYYADSVKGRFTISRDNAKNTVYLQMISLKPEDTAVYYCATRYLWRPRPYDYWGQGTQVTVSS”: the “polyreactivity (PSR sort gate)” value is “high polyreactivity”.

For “QVQLVETGGGLVQAGGSLRLSSAASGRTFAYYAMGWYRQAPGKERELVAAISSGGGSTYYADSVKGRFTISRDNAKNTVYLQMNSVKPEDTAVYYCNKGFNYCGWFKKYGYWGQGTQVTVSS”, the “polyreactivity (PSR sort gate)” value is given as “high polyreactivity”.

Turning to “QVQLVESGGGLVQAGGSLRLSCAASGRTYISNVIGWYRQAPGKERELVAAISGSSGSTRYADSVKGRFTISRDNAKNTVYLQMNSLKPEDSAVYYCAARAPWPKWGYYYWGQGTQVTVSS”, the “polyreactivity (PSR sort gate)” value is “high polyreactivity”.

“QVQLVESGGGLVQAGGSLRLSCAASGYTFTSNAMGWYRQAPGKERELVADISTGVDSTYYADSVKGRFTISRDNAKNTVYLQMNSLKPEDTAVYYCNADILVAWYDEPFDYWGQGTQVTVSS”: the “polyreactivity (PSR sort gate)” value was “low polyreactivity”.

Turning to “QVQLVESGGGLVQAGGSLRVSCAASGNTFGYFAMGWYRQAPGKERELVAAMSGSGGRTYYAASVKGRFTISRDNAKNTVDLQMNILKPEATAVYYCNAVYYHVVDFDYWGQGTQVTVSS”, the “polyreactivity (PSR sort gate)” value is “high polyreactivity”.

For the sequence “QVQLVESGGGLVQAGGSLRLSCAASGSIFFRYTMGWYRQAPGKERELVAAITGDGGSTYADSVKGRFTISRDNAKNTVYLQMNSLNPEDTAVYYCAALSTTGIWGTVSTYYYWGQGTQVTVSS”, the “polyreactivity (PSR sort gate)” value is recorded as “low polyreactivity”.

As to “QVQLVESGGGLVQAGGSLRLSCAASGSNFDNAKGWYRQAPGKERELVAAITSGGITNYADSVKGRFTNSRDNAKKTVYLQMNSQKPEDTAVYYCNTMSPTQTKYDYWGQGTQVTVSS”, the “polyreactivity (PSR sort gate)” value is “low polyreactivity”.

Regarding “QVQLVESGGGLVQAGGSLRLSCAASGSTFHSYAMGRYRQAPGKEREFVAAITIRGGSTYYADSVKGRFTISRDNAKNTVYLQMNSLKPEDTAVYYCAALVWGSYARWRYYWGQGTQVTVSS”, the “polyreactivity (PSR sort gate)” value is recorded as “high polyreactivity”.

On to “QVQIVESGGGLVQAAGSLRLTFAASGIIFYIYPMGWYRPAPGKERELVASISFSGTSTYYADSVKGRFTISRDNAKNTVYIQMHSLKPEDTAVYYCAAGARWRRALAVKPYQKYGYWGQGTQVTVSS”, for which the “polyreactivity (PSR sort gate)” value was “low polyreactivity”.

With “QVQLVESGGGLVQAGGSLRLSCAASGRTFDDYPMGWYRQAPGKDSELVAAITRRGGSTYYADSVKGRFTISRDNAKNTVYLQMNSLNPEDTAVYYCAADLFFKARGYDYWGQGTQVTVST”, the “polyreactivity (PSR sort gate)” value is “high polyreactivity”.

With “QVQLVESGGGLVQAGGSLRLSCAASGLIIYSNAMGWYRQAPRKERELVAAINYSGGRTYYADSVKGRFTISRDNAKNTVYLQMNSLKPEDTAVYYCAARLYGAQRHGGYWGQGTQVTVSS”, the “polyreactivity (PSR sort gate)” value is “high polyreactivity”.

Turning to “QVQLVESGGGLVQAGGSLRLTCAASGRIFDRYVMGWYRQAPGKERELVAAITFSGGRTYYADSVKGRFTISRDNAKNTVYLQMNSLKPEDTAVYYCNRVYYQKIYDYWGQGTQVTVSS”, the “polyreactivity (PSR sort gate)” value was “high polyreactivity”.

Regarding “QVQLVESGGGLVQAGGSLRLSCAASGSTSYPYAMGWYRQAPGKERELVATITSGGRTNYADSVKGRFTISRDNAKNTVYLQMNSLKPEDTAVYYCNARFYRWRSYGYDYWGQGTQVTVSS”, the “polyreactivity (PSR sort gate)” value was “high polyreactivity”.

Turning to “QVQLVESGGGLVQAGGSLRLSCAASGSIFTRNAMGWYRQAPGKERELVATIRKNGASTTYADSVKGRFTISRDNAKNTVYLQMNSLKPEDTAVYYCARDHHTKYNYWGQGTQVTVSS”, the “polyreactivity (PSR sort gate)” value is reported as “low polyreactivity”.

With “QVQLVESGGGLVQAGGSLRLSCAASGRIFSSYAMGWYRQAPGKERELVAVISQRGGSTSYADSVKGRFTISRDNAKNTVYLQMNSLKPEDTAVYYCARRPGKGNNYWGQGTQVTVSS”, the “polyreactivity (PSR sort gate)” value is listed as “high polyreactivity”.

In the case of “QVQLVESGGGLVQAGGSLRLSCAASGSIFYSYAMGWYRQAPGKERELVAVITRGGSTNYADSVKGRFTISRDNAKNTVYLQMNSLKPEDTAVYYCNKDRYGKVFRYPPYYRSSPYDYWGQGTQVTVSS”, the “polyreactivity (PSR sort gate)” value is given as “high polyreactivity”.

For “QVQLVESGGGLVQAGGSLRLSCAASGRIFGYYAMGWYIQAPGKERELVAGIDWSGGNTYYADSVKGRFTISRDNAKNTVYLQMNSLKPEDTAVYYCNTEGGRDTAWYDYWGQGTQVTVSS”, the “polyreactivity (PSR sort gate)” value was “low polyreactivity”.

Turning to “QVKLVESGGGLVQAGGSLRLSCAASGRTFYINAMGWYRQAPGKERELVAAISRVGSTNYADSVKGRFTISRDNAKNTVYLQMNSLKPEDTEVYYCAARSRGGRRYYYWGQGSQVTVSS”, the “polyreactivity (PSR sort gate)” value was “high polyreactivity”.

With “QVQLVESGGGLVQAGGSLRLSCAASGLTFRWYAMGWYRQAPGKERELVAAISWSGGSTYYADSVKGRFTISRDNAKNTVYLQMNSLKPEDTAVDYCAASYYADRSKAYDYWGQGTQLTVSS”, the “polyreactivity (PSR sort gate)” value is “high polyreactivity”.

Regarding “QVQLVESGGGLVQAGGSLRLSCAASGSTFSKYAMGWYRQAPGKERELVATISSTGSTNYADSVKGRFTISRDNEKNTVYLQMNSLKPEDTAVYDCNAGRRGRPYYKYYYWGQGTQVTVSS”, the “polyreactivity (PSR sort gate)” value is recorded as “high polyreactivity”.

On to “QVQLVESGGGLVQAGGSLRLSCAASGLTIVQYAMGWYRQAPGKERELVARISRNGGSSYYADSVKGRFPISRDNAKNTVYLQMNSLKPEDTAVYYCNALRGPVKFYYWGQGTQVTVSS”, for which the “polyreactivity (PSR sort gate)” value is “low polyreactivity”.

As to “QVQLVESGGGLVQAGGSLRLSCAASGSTFTPNAMVWYRQAPGKERELVAAINWSDSSTYYADSVKGRFTISRDNAKNTVYLQMNSLKPEDTAVYYCAAAAQYGQLQVPVYYWGQGTQVTVSS”, the “polyreactivity (PSR sort gate)” value is on record as “low polyreactivity”.

As to “QVQLVESGGGLVQAGGSLRLSCAASGGTFRYYTMVWYRQAPGKERELVAAITRGGRTYYADSVKGRFTISRDNAKNTVYIQMNSLKPEDTAVYYCAAVRPRSPVSYENDYWGQGTQVTVSS”, the “polyreactivity (PSR sort gate)” value is listed as “high polyreactivity”.

On to “QVQLQESGGLVQAGGLRLSCAASGSVSYQEAMGWYRQAPGKERELVATISFGAKTNYADSVKGRFTISRDNAKNTVYLHINSLNPEDTAVYYCAAESLFDDYYGYWGQGTQVTVSS”, for which the “polyreactivity (PSR sort gate)” value is “low polyreactivity”.

Take “QVQLVESGGGLVQAGGSLRLSCAASGFIFSYYTMGWYRQAPGKEWEVVAAIRSSGGSTYADSVKGRFTISRDNAKNTVYLQKNSLKPEDTAVYYCAAVQTWRWVYARDYWGQGTQVTVSS”: the “polyreactivity (PSR sort gate)” value is reported as “high polyreactivity”.

For “QVQLVESGGGLVQAGGSLRLSCAASGFTFLYNARGWYIQAPGKERELVASINSGGSTNYADSVKGRFTISRDNAKNTVYLQKNSLKPEDTAVYYWNAKRHVRKGDYWGQGTQVTVSS”, the “polyreactivity (PSR sort gate)” value is “low polyreactivity”.

As for “QVQLVESGGGLVQAGGSLRLSCAASGITFGRKTMGWYRQAPGKERELLAAIDSGGNTYADSVKGRFTISRDNAKNTDYLEMNSLKPEDTAVYYCAVDGGEFYSYGYWGLGTQVTVSS”, the “polyreactivity (PSR sort gate)” value is “low polyreactivity”.
